Results as given in US20060153775A1.
Starred links: 1 amine or outer side, 2 acyl side, 3 side chain; linkers in the order of their positions; H or OH if unused. Primed or numbered codes have the meaning given here. DPPE′ = dipalmitoylphosphatidylethanolamine; Glutaryl = O=C(CCCC(=O)[*:2])[*:1]

How the values were obtained:
[1] = molecular target: binding target for TKPPR on HAEC (human aortic endothelial cells); experiment: static bubble binding to HAEC, manual count
[2] = molecular target: binding target for TKPPR on HAEC (human aortic endothelial cells); experiment: static bubble binding to HAEC, 5% composition
[3] = molecular target: binding target for TKPPR on HAEC (human aortic endothelial cells); experiment: static bubble binding to HAEC, 5% composition, no competition
[4] = molecular target: binding target for TKPPR on HAEC (human aortic endothelial cells); experiment: static bubble binding to HAEC, 5% composition, no competitor (same control as Table 13)
[5] = molecular target: binding target for TKPPR on HAEC (human aortic endothelial cells); experiment: static bubble binding to HAEC, 5% composition, no competitor
[6] = molecular target: binding target for TKPPR on HAEC (human aortic endothelial cells); experiment: static bubble binding to HAEC treated 4 h with 10 ng/mL TNFα, 5% composition
[7] = molecular target: binding target for TKPPR on HAEC (human aortic endothelial cells); experiment: static bubble binding to HAEC treated 4 h with 5 ng/mL TNFα, 5% composition
[8] = molecular target: binding target for TKPPR on HAEC (human aortic endothelial cells); experiment: static bubble binding to HAEC, 5% D47, no competitor
[9] = molecular target: binding target for TKPPR on HAEC (human aortic endothelial cells); experiment: static bubble binding to HAEC, 5% composition, untreated cells
[10] = molecular target: binding target for TKPPR on HAEC (human aortic endothelial cells); experiment: static bubble binding to HAEC, 10% D47, no competitor
[11] = molecular target: binding target for TKPPR on HAEC (human aortic endothelial cells); experiment: static bubble binding to HAEC, 1% D47, no competitor
[12] = molecular target: binding target for TKPPR on HAEC (human aortic endothelial cells); experiment: static bubble binding to HAEC, 2% D47, no competitor
[13] = molecular target: binding target for TKPPR on HAEC (human aortic endothelial cells); experiment: static bubble binding to HAEC, 1% composition, no competition
[14] = molecular target: KB cells (human epidermoid carcinoma cell line); experiment: static bubble binding to KB cells, 5% composition
[15] = molecular target: binding target for TKPPR on RAEC (rabbit aortic endothelial cells); experiment: static bubble binding to RAEC, 5% composition, no competitor
[16] = molecular target: binding target for TKPPR on HAEC (human aortic endothelial cells); experiment: static bubble binding to HAEC treated 4 h with 1 ng/mL TNFα, 5% composition
[17] = molecular target: binding target for TKPPR on HAEC (human aortic endothelial cells); experiment: competition of TKPPR-bead binding to HAEC; free TKPPR 500 µM
[18] = molecular target: binding target for TKPPR on HAEC (human aortic endothelial cells); experiment: competition of 10% D47 bubble binding to HAEC; free TKPPR 10 µM
[19] = molecular target: binding target for TKPPR on HAEC (human aortic endothelial cells); experiment: competition of 2% D47 bubble binding to HAEC; TKPPR 25 µM
VEGF receptors on HUVECs = experiment: competition with 125I-VEGF for binding to HUVECs
[20] = molecular target: binding target for TKPPR on HAEC (human aortic endothelial cells); experiment: competition of 5% D47 bubble binding to HAEC; free TKPPR 10 µM
[21] = molecular target: binding target for TKPPR on HAEC (human aortic endothelial cells); experiment: competition of 1% D56 bubble binding to HAEC; TKPPR 2.5 µM
[22] = molecular target: binding target for TKPPR on HAEC (human aortic endothelial cells); experiment: competition of 1% D47 bubble binding to HAEC; TKPPR 10 µM
[23] = molecular target: binding target for TKPPR on HAEC (human aortic endothelial cells); experiment: competition of 1% D47 bubble binding to HAEC; free TKPPR 10 µM
[24] = molecular target: binding target for TKPPR on HAEC (human aortic endothelial cells); experiment: competition of TKPPR-bead binding to HAEC; free TKPPR 50 µM
[25] = molecular target: binding target for TKPPR on HAEC (human aortic endothelial cells); experiment: competition of 1% D47 bubble binding to HAEC; TKPPR 100 µM
[26] = molecular target: binding target for TKPPR on HAEC (human aortic endothelial cells); experiment: competition of 10% D47 bubble binding to HAEC; free TKPPR 100 µM
[27] = molecular target: binding target for TKPPR on HAEC (human aortic endothelial cells); experiment: competition of 1% D56 bubble binding to HAEC; TKPPR 50 µM
[28] = molecular target: binding target for TKPPR on HAEC (human aortic endothelial cells); experiment: competition of 1% D47 bubble binding to HAEC; free TKPPR 200 µM
[29] = molecular target: binding target for TKPPR on HAEC (human aortic endothelial cells); experiment: competition of 5% D47 bubble binding to HAEC; free TKPPR 200 µM
[30] = molecular target: binding target for TKPPR on HAEC (human aortic endothelial cells); experiment: competition of 1% D47 bubble binding to HAEC; TKPPR 5 µM
[31] = molecular target: binding target for TKPPR on HAEC (human aortic endothelial cells); experiment: competition of 1% D47 bubble binding to HAEC; TKPPR 50 µM
[32] = molecular target: binding target for TKPPR on HAEC (human aortic endothelial cells); experiment: competition of 1% D56 bubble binding to HAEC; TKPPR 10 µM
[33] = molecular target: binding target for TKPPR on HAEC (human aortic endothelial cells); experiment: competition of 1% D56 bubble binding to HAEC; TKPPR 25 µM
[34] = molecular target: binding target for TKPPR on HAEC (human aortic endothelial cells); experiment: competition of 5% composition bubble binding to HAEC; free TKPPR 100 µM
[35] = molecular target: binding target for TKPPR on HAEC (human aortic endothelial cells); experiment: competition of 1% D47 bubble binding to HAEC; free TKPPR 50 µM
[36] = molecular target: binding target for TKPPR on HAEC (human aortic endothelial cells); experiment: competition of TKPPR-bead binding to HAEC; free TKPPR 25 µM
[37] = molecular target: binding target for TKPPR on RAEC (rabbit aortic endothelial cells); experiment: competition of 5% composition bubble binding to RAEC; free TKPPR 100 µM
[38] = molecular target: binding target for TKPPR on HAEC (human aortic endothelial cells); experiment: competition of 5% D47 bubble binding to HAEC; free TKPPR 50 µM
[39] = molecular target: binding target for TKPPR on HAEC (human aortic endothelial cells); experiment: competition of 5% composition bubble binding to HAEC
[40] = molecular target: binding target for TKPPR on HAEC (human aortic endothelial cells); experiment: competition of 1% composition bubble binding to HAEC
[41] = molecular target: binding target for TKPPR on HAEC (human aortic endothelial cells); experiment: competition of 5% D47 bubble binding to HAEC; free TKPPR 100 µM
[42] = molecular target: binding target for TKPPR on HAEC (human aortic endothelial cells); experiment: competition of 10% D47 bubble binding to HAEC; free TKPPR 200 µM
[43] = molecular target: binding target for TKPPR on HAEC (human aortic endothelial cells); experiment: competition of 1% composition bubble binding to HAEC; free TKPPR 10 µM
[44] = molecular target: binding target for TKPPR on HAEC (human aortic endothelial cells); experiment: competition of 1% composition bubble binding to HAEC; free TKPPR 100 µM
[45] = molecular target: binding target for TKPPR on HAEC (human aortic endothelial cells); experiment: competition of 10% D47 bubble binding to HAEC; free TKPPR 50 µM
[46] = molecular target: binding target for TKPPR on HAEC (human aortic endothelial cells); experiment: competition of 1% composition bubble binding to HAEC; free TKPPR 50 µM
[47] = molecular target: binding target for TKPPR on HAEC (human aortic endothelial cells); experiment: competition of 1% composition bubble binding to HAEC; free TKPPR 25 µM
[48] = molecular target: binding target for TKPPR on HAEC (human aortic endothelial cells); experiment: competition of 1% D47 bubble binding to HAEC; TKPPR 2.5 µM
[49] = molecular target: binding target for TKPPR on HAEC (human aortic endothelial cells); experiment: competition of 1% D47 bubble binding to HAEC; TKPPR 25 µM
[50] = molecular target: binding target for TKPPR on HAEC (human aortic endothelial cells); experiment: competition of TKPPR-bead binding to HAEC; free TKPPR 100 µM
[51] = molecular target: binding target for TKPPR on HAEC (human aortic endothelial cells); experiment: competition of TKPPR-bead binding to HAEC; free TKPPR 10 µM
[52] = molecular target: binding target for TKPPR on HAEC (human aortic endothelial cells); experiment: competition of TKPPR-bead binding to HAEC; free TKPPR 200 µM
[53] = molecular target: binding target for TKPPR on HAEC (human aortic endothelial cells); experiment: competition of 1% D47 bubble binding to HAEC; free TKPPR 100 µM
[54] = molecular target: binding target for TKPPR on HAEC (human aortic endothelial cells); experiment: competition of 1% composition bubble binding to HAEC; free TKPPR 5 µM

{DPPE′-Glutaryl}-GTKPPR-OH (also: held in phospholipid shell of microbubbles) [gas-filled microbubbles containing DPPE-Glu-GTKPPR (D47), composition I of Example 5]
% more bubbles bound than with the 1% composition [1]: 31% | Bubbles Bound [2]: 7050 bubbles | bubble binding [2]: 1120 bubbles | Bubbles Bound [3]: 726 bubbles | Bubbles Bound [4]: 1250 bubbles | Bubbles Bound [5]: 1250 bubbles | HAEC bubbles bound [5]: 1420 bubbles | TKPPR-Bubbles bound [6]: 1020 bubbles | TKPPR-Bubbles bound [7]: 1360 bubbles | Bubbles Bound- 5% [8]: 2780 bubbles | TKPPR-Bubbles bound [9]: 950 bubbles | Bubbles Bound- 10% [10]: 1860 bubbles | Bubbles Bound [11]: 737 bubbles | Bubbles Bound- 1% [11]: 1640 bubbles | Bubbles Bound [12]: 953 bubbles | Bubbles Bound % [12]: 100 % of control | Bubbles Bound [13]: 555 bubbles | bubble binding [14]: 56 bubbles | RAEC bubbles bound [15]: 751 bubbles | TKPPR-Bubbles bound [16]: 1520 bubbles

TKPPR [TKPPR (L-threonyl-L-lysyl-L-prolyl-L-prolyl-L-arginine)]
% Inhibition (average, n = 11) [17]: 70.6% | Bubbles Bound- 10%, in presence of competitor [18]: 1090 bubbles | Bubbles Bound % in presence of competitor [19]: 16 % of control | IC50 (VEGF receptors on HUVECs): 250 µM | Bubbles Bound- 5%, in presence of competitor [20]: 1340 bubbles | Bubbles Bound- D56 Formulation, in presence of competitor [21]: 888 bubbles | Bubbles Bound in presence of competitor [22]: 528 bubbles | Bubbles Bound- D47 Formulation, in presence of competitor [22]: 535 bubbles | Bubbles Bound- 1%, in presence of competitor [23]: 10 bubbles | % Inhibition (average, n = 11) [24]: 50.5% | Bubbles Bound in presence of competitor [25]: 17 bubbles | Bubbles Bound- 10%, in presence of competitor [26]: 399 bubbles | Bubbles Bound- D56 Formulation, in presence of competitor [27]: 462 bubbles | Bubbles Bound- 1%, in presence of competitor [28]: 4 bubbles | Bubbles Bound- 5%, in presence of competitor [29]: 13 bubbles | Bubbles Bound in presence of competitor [30]: 790 bubbles | Bubbles Bound in presence of competitor [31]: 56 bubbles | Bubbles Bound- D47 Formulation, in presence of competitor [31]: 9 bubbles | Bubbles Bound- D56 Formulation, in presence of competitor [32]: 833 bubbles | Bubbles Bound- D56 Formulation, in presence of competitor [33]: 718 bubbles | HAEC bubbles bound in presence of competitor [34]: 58 bubbles | Bubbles Bound- 1%, in presence of competitor [35]: 5 bubbles | % Inhibition (average, n = 11) [36]: 50.7% | RAEC bubbles bound in presence of competitor [37]: 21 bubbles | Bubbles Bound- 5%, in presence of competitor [38]: 440 bubbles | % more bubbles bound with competitor [39]: 19% | % inhibition of bubble binding [40]: 82.7% | Bubbles Bound- 5%, in presence of competitor [41]: 12 bubbles | Bubbles Bound- 10%, in presence of competitor [42]: 66 bubbles | Average % Inhibition [43]: 79.6% | Average % Inhibition [44]: 93.7% | Bubbles Bound- 10%, in presence of competitor [45]: 857 bubbles | Average % Inhibition [46]: 92.7% | Average % Inhibition [47]: 82% | Bubbles Bound- D47 Formulation, in presence of competitor [48]: 1240 bubbles | Bubbles Bound in presence of competitor [49]: 106 bubbles | Bubbles Bound- D47 Formulation, in presence of competitor [49]: 75 bubbles | % Inhibition (average, n = 11) [50]: 62% | % Inhibition (average, n = 11) [51]: 30.8% | % Inhibition (average, n = 11) [52]: 72.2% | Bubbles Bound- 1%, in presence of competitor [53]: 4 bubbles | Average % Inhibition [54]: 45.7%
